From patent US20060127407A1

Biological target: alphaVbeta3 integrin (human) (UniProt P06756)
Assay: ELISA, purified antibody on alphaVbeta3

alphaVbeta3 integrin (human), sequence (P06756 31-1048, chain 1 of 2): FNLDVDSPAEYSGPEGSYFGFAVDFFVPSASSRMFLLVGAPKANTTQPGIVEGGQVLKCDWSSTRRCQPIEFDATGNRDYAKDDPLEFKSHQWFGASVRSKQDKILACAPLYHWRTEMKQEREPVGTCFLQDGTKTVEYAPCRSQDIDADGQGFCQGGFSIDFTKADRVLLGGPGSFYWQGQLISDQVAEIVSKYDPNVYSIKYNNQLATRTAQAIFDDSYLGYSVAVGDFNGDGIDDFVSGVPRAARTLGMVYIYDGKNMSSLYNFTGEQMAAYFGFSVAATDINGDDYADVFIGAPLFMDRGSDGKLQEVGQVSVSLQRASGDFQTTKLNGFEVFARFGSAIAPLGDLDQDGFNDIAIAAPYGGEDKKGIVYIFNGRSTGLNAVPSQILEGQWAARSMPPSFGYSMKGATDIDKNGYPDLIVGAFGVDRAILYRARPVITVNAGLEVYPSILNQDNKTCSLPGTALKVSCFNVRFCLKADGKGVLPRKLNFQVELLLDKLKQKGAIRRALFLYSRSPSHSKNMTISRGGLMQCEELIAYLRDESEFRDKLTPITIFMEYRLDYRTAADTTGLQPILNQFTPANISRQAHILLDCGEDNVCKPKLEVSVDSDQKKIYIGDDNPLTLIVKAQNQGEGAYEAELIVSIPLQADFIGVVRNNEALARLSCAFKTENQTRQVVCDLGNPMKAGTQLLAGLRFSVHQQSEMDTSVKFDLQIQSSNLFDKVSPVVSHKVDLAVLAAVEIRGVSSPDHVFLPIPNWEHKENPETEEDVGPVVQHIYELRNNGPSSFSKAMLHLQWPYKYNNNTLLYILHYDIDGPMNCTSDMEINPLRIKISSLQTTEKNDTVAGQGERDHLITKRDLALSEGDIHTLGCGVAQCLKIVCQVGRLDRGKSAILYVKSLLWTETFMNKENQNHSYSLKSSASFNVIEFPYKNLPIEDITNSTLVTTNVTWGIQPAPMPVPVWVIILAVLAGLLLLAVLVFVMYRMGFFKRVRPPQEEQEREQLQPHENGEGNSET
alphaVbeta3 integrin (human), sequence (P05106 27-788, chain 2 of 2, further chain): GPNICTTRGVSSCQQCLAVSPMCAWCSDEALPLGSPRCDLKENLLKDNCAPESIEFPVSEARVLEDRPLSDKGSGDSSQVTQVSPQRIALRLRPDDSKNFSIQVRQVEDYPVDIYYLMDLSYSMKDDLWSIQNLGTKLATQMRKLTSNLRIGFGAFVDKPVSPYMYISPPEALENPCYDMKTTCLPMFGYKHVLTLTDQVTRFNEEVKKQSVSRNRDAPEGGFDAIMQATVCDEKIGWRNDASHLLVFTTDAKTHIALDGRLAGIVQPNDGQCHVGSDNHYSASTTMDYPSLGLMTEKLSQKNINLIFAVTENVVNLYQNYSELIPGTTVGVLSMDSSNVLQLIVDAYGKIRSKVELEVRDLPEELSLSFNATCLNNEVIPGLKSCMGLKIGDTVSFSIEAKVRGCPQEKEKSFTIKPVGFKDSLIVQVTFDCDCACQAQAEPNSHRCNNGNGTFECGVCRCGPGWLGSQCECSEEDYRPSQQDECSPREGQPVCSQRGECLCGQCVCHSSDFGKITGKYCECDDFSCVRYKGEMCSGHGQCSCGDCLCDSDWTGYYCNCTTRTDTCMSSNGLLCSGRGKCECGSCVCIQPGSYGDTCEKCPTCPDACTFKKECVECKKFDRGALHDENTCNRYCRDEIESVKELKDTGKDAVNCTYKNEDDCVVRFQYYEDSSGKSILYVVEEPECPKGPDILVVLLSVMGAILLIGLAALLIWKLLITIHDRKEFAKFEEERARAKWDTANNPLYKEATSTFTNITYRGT

- EC50: 0.07 µg/mL
B1: c7E3 IgG (antibody, INN chains, looked up, V domains shown)
VH: EVQLQQSGTVLARPGASVKMSCEASGYTFTNYWMHWVKQRPGQGLEWIGAIYPGNSDTSYIQKFKGKAKLTAVTSTTSVYMELSSLTNEDSAVYYCTLYDGYYVFAYWGQGTLVTVSA
VL: EIVLTQSPVTLSVTPGDSVSLSCRASRDISNNLHWFQQTSHESPRLLIKYASQSMSGIPSRFSGSGSGTDFTLSINSVETEDFGMYFCQQTNSWPYTFGGGTKLEIK
modifications: IgG
